Measured values published in paper PMC2865030.
pKd: −log10 of the molar value.

How the values were obtained:
Test in all cases: ITC
[1] = molecular target: yeast Hsp90 (wild type, His-tagged) (yeast) (UniProt P02829)
[2] = molecular target: Tah1 (TPR-containing protein associated with Hsp90) (S. cerevisiae) (UniProt P25638)
[3] = molecular target: yeast Hsp90 M705V (His-tagged) (yeast) (UniProt P02829)

Tah1 (TPR-containing protein associated with Hsp90) (S. cerevisiae), sequence (P25638 whole entry): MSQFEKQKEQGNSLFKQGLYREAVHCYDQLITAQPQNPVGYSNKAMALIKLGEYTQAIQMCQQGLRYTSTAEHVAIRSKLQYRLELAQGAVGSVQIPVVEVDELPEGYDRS
mouse CHIP (C-terminal of Hsp70-interacting protein), sequence (Q9WUD1 whole entry): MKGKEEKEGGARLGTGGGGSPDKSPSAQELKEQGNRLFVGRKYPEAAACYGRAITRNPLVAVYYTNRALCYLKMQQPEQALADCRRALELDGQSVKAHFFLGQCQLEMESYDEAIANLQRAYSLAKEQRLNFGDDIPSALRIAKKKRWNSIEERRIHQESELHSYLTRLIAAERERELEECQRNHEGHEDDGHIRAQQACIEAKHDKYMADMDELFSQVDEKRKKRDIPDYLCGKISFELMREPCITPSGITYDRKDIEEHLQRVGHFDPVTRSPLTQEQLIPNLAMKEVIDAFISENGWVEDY
C-terminal domain of Sti1 (cSti1), His-tagged (domain or fragment), sequence (P15705 133-581): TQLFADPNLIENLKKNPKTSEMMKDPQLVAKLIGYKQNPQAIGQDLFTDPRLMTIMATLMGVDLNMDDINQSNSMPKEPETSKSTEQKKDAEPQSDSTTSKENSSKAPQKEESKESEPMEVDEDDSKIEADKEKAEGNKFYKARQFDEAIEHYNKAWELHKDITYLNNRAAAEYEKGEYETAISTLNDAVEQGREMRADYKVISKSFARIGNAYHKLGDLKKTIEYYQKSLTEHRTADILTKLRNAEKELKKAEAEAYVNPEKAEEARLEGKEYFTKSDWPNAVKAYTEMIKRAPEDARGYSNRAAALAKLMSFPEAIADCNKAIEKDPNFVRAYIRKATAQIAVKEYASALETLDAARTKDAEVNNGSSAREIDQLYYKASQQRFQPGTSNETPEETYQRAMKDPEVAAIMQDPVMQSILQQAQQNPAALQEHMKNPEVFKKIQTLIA

| stoichiometry N [1] | pKd [2] | stoichiometry N [2] | pKd [3] | stoichiometry N [3] | Substance |
| --- | --- | --- | --- | --- | --- |
| 0.88 |  |  |  |  | C-terminal domain of Sti1 (cSti1), His-tagged (domain or fragment) |
|  | 6.12 | 0.81 |  |  | … decapeptide (yeast Hsp90 C-terminal decapeptide, TE replaced by Ala-Ala) |
|  | 5.48 | 0.89 |  |  | … decapeptide (yeast Hsp90 C-terminal decapeptide, Met at -4 replaced by Ala) |
|  | 4.83 | 1.1 |  |  | … decapeptide (Ssa1 C-terminal decapeptide, Val at -4 replaced by Ala) |
| 1.2 |  |  | 5.17 | 1.1 | mouse CHIP (C-terminal of Hsp70-interacting protein) (from UniProt Q9WUD1 1-304) (natural protein) |
|  | 5.38 | 0.98 |  |  | … decapeptide (Ssa1 C-terminal decapeptide, Val at -4 replaced by Met) |

| Substance | stoichiometry N [1] | pKd [2] | stoichiometry N [2] | pKd [3] | stoichiometry N [3] |
| --- | --- | --- | --- | --- | --- |
| … decapeptide (yeast Hsp90 C-terminal decapeptide, Met at -4 replaced by Val) |  | 5.01 | 1.1 |  |  |
